Assay: yeast display, Sf9 membrane polyspecificity reagent, FACS + sequencing; frameworks hold sequencing errors
How it was run: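 Nanobodies came from a synthetic yeast display library in Saccharomyces cerevisiae BJ5465, induced with galactose for 36–48 hours and stained for 1 hour at 4 °C with 10% biotinylated, detergent-solubilized Sf9 membrane reagent. Cells were enriched on streptavidin microbeads and then FACS-sorted, with low and high (top ~1%) gates set on anti-HA fluorescence for expression and streptavidin fluorescence for reagent binding. Each polyreactivity label reflects the gate a clone came from. Genes were amplified by colony PCR, sequenced by MiSeq 2 × 250 and filtered by CDR length.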

Row | Sequence | polyreactivity (PSR sort gate)
1 | QVQLVESGGCLVQAGGSLRLSCAASGFTFSRYNMGWYRQAPGKESELVATISWSGSRTYYADSVKGRFTISRDNAKNTVYLQINSLKPDDTAFYYCNFAPHRQVFYTGQYDYWGQGTQVTVSS | high polyreactivity
2 | QVQLVESGGGLVQAGGSLRLSCAASGFIFWSYAMGWYIQAPGKERELVAAINTSGDSTYYADSVKGRFTISRDNAKNTVYLQMNSLKPEDTAVYYCAAKSSTRGDYWGQGTQVTVSS | low polyreactivity
3 | QVQLVESGGGLVQAGGSLRLSCAASGFTFGPYAMGWYRQAPGKERELVAAISQSGGRTSYADSVKGRFTISRDNAKNTVYLQMNSLKPEDTSVYYCAKRAYGYRSIYRMDYWGQGTQVTVSS | high polyreactivity
4 | QVQLVESGGGLVQAGGSLRLSCAASGRLFRWYAMGGYRQAPGKERELVAAISRSGTSTYYADSVKGRFTISRDNAKNSVYLQMNSLKPEDTAVYYCAADAVIFGMDYWGQGTQVTVSS | low polyreactivity
5 | QVQLVESGGGLVQAGGSLRLSCAASGSTFSANAMGWYRQAPGKERELVAAITYRGGNTYYADSVKGRFTISRDNAKNTVYLQMNSLKPEDTAVYYCNRDLRVRYRRMKYGYWGQGTQVTVSS | low polyreactivity
6 | QVQLVESGGGLVQAGGSLRLSSAASVIIFSNNAMGWSRQAPGKERELVAAISRSGGSTYYADSLKGRFTISRDNAKNTVYLQMNSLKPEETAVYYCAARARSRYDSWGQGTQVTVSS | low polyreactivity
7 | QVQLVESGGGLVQAGGSLRLSCAASGSIFESYAMGWYRQAPGKERELVAAITKRGGSTYYADSVKGRFTISRDNAKYTVYLQMNSLKPEDTAVYYCNARWPGIGPIYDYCGQGTQVTVSS | low polyreactivity
8 | QVQVVESGGGLVQEVGSLRLSCDASGRSFHHNVMGWYRQAPGKERELVAAISQSGCSTYYADSVKGRFTISRDNAKNTLYLLINSLKPEDSAVYYCNAGAAGRRYNYWGQGTQVTVSS | low polyreactivity
9 | QVHLQESGGVQAGGSLPQSCAASGNISRSDVMGWYRQAPPKERELVATINNGTITYYADSVKGRFTISRDHAKNTVYLHMNSLKQEDTAVQYCAVVQSDTDSLYYWGQGTQVTVSS | low polyreactivity
10 | QVQLVESGGGLVQAGGSLRLSCAASGGTFRYNAMGWYRQAPGKERELVAAIRWSGGRTYYADSVKGRFTISRDNAKNTVFLQINSLKPEDTAVYYCAALYRGYAVAASYYLWGLGTQVTVSS | high polyreactivity
11 | QVQLVESGGGLGQAGGSLRLSCAASGSIYNDNVMGWYRQAPGKERELVAGISRSGTRTYYADSVKGRFTISRDNAKNTVYLQMNSLKPEDTAVYYCAAAYGQARRYNASQYGSWGQGTQVTVSS | high polyreactivity
12 | QVHLVESGGGLVQAGGSLRLSCAASGRIYYRYAMGWYRTAPGKERELVAAISASGRTYYADSVKGRFTISRDNAKNTVYLQMNSLKTEDTAVYYCAKVAAGSLGSWGQGTQVTLSS | high polyreactivity
13 | QVQLVESGGGLVQAGGSLRLSCAASGFIFKRYAMGWYRQAPGKERELVATISNSGGRTYYADSVKWRFTISRDNAKNTVYLQMNSLKPEDTAVYYCAALPFWWGGYWGQGTQVTVSS | high polyreactivity
14 | QVQLVESGGGLVQAGGSLRLSCAASGFIFVANAMGWYRQAPGKERELVAAISFSGGRTYYADSVKGRFTISRDNAKNTVYLQMNSLKPEDTAVYYCNTVSEWWAGDHPDAEFDYWGQGTQVTVSS | low polyreactivity
15 | QVQLVESAAGLVQAGGSLRLSCAASGGIFWVYAMGWYRQAPGKERELVAAISNSDTSTSDADSVKGRFTISRDTAKNTVYLQMYSLKPEDTAVYNCNGDSPSLSGDIWGQGTQVTVTS | low polyreactivity
16 | QVQLVESGGGLVQAGGSLRLSCAASGRTIRENVMGWYRQAPGKERELVAAITGNDGTTYYADSVKGRFTISRDNAKNTVYLQMNSLKPEDTAVYYCAARPYLGYIGYDYWGQGTQVTVSS | low polyreactivity
17 | QVQLVESGGGLVQAGVSLRLSCAASGNTFGLYAMGWYRQAPGKEREFVADITTDGGTTYYADSVKGRFTISRDNAKNTVYLQMNSLKPEDTAVYYCAKLGTFGQHQYDYWGQGTQVTVSS | low polyreactivity
18 | QVQLQESGGGLVKAGGSLRLSCAASGNISNHNDMGWYRQAPGKEREFVAGITAGGITNYADSVKGRFTISRDNAKNTGYLQMNSLKPEDTAVYYCAAYPDYAKSYGYWGQGTQATVSS | low polyreactivity
19 | QVQLVESGGVLVQAGGSLRLSCAASGRIFTRNAMGWYRQAPGKERELVASITRGGSTYYADSVKGRFTISRDNAKITVYLQMNCLKAEDTALYYCAAVFYDRGQRYNYWGQGTQVTVSS | high polyreactivity
20 | QVQLVESGGGLVQAGGSLRLSCAASGNIFLYYAMGWYRQAPGKERELVARIDSGGSTYYADSVKGRFTISRDNAKNTVYLQMNSLKPEDTAVYYCATDEGTVGGQQLRPLMDYWGQGTQVTVSS | low polyreactivity
21 | QVQLVESGGGLVQAGGSLRLSCAASGSTFPYYAMGWYRQAPGKERELVAAITSGGSTNYADSVKGRFTISRDNAKNTVYLQMNSLKPEDTAVYYCNADTTYLSDYVTFDYWGQGTQVTVSS | low polyreactivity
22 | QVQLVESGGGIVQAGGSLRLSCAASGRIFGHYAMGWYRPAPGKERELVAAITKNGDSTYYADSVKGRFTISRDNAKNRVYLPMNSLKPEDTAVYYCNAVYDLVCGEGYDSWGQGTQVTVSS | low polyreactivity

Row | Sequence | polyreactivity (PSR sort gate)
23 | QVQLVESGGGLVQAGGSLRLSCAASGSTFYDYAMGWYRQAPGKERELVASITTGGDSTYYADSVKGRFTISRDNAKNTVYLQMNSLKPEDTAVYYCNADWYYWISNYQGAPEMDYWGQGTQVTVSS | high polyreactivity
24 | QVQLVESGGCLVQAGCSLRLSCAASGRTFRTYVMGWYRQAPGKEREFVAGITWSSGSTRYADSVKGRFTISRDNAKNTVYLQMNSLKPEDTAVYYCNATPFYLLYSHTYIQYEGDYWGQGTQVTVSS | high polyreactivity
25 | QVQLVESGGGLVQAGGSLRLSCAASGYIFYGYDMGWYRQAQGKERDLVAGITYSGGGGTHYADSVKGRFTISRDNAKNTVYLQMNSLKPEDTAVYYCAKADPQLNRNYYSYGMDYWGQGTQVTVSS | low polyreactivity
26 | QVQLVESGGGLVQAGGSLSLSCAASGRIFRYNAMGWYRQAPGKERELVATISRGGGSTYYADSVKGRFTISRDNAKNTVYLQMNSLKPEYTAVYYCAAVTYSRISGGYDYWGQGTQVTVSS | high polyreactivity
27 | QVQLVESGGGLVQAGGSIRLSCAASGSIYKYNAMGWYRQAPGKERELVAAISSGGSTNYADSVKGRFTISRDNAKNTVYLQMNSLKPEDTAVYYCAKDRRRWYYTRDYWGQGTQVTVSS | low polyreactivity
28 | QVQLVESGGGLVQAGGSLSLSCAASGYIVKAYVMGWYRPAPGKVRELVAAITWSGGSTYYADTVKGRFTISRDNAKNTVYLQMNSLKPEDTAVYYCAAYARRYRTPYDFWGQGTQVTLSS | high polyreactivity
29 | QVQLVESGGGLVQAGGSLRLSCAASGRIFRRYAMGWYRQAPGKERELVAAISSTGGNTYYADSVKGRFTISRDNAKNTVYLQMNSLKPEDTAVYYCATRAFYLRGNGYWGQGTQVTVSS | high polyreactivity
30 | QVQLVESGGGLVQAGGSLRLSCAASGRIFDDYAMGWYRPAPGKERELVAAISSSGGSTYYADSLKGRFTISRDNAKNTVYLQINSLKPEDTAVYFCAASSFRSYYSGKYDYWGQGTQVTVSS | high polyreactivity
31 | QVQLVESGGGLVQAGGSLRLSCAASGSTFFEYTMGWYRQAPGKEREFVADIRGRDGSTSYADSVKGRFTISRDNAKNTVYLQMKSLKPEDTAVYYCGADVSDWWSFGNDSWGHGTQVTVSS | low polyreactivity
32 | QVQLVESGGGLVQEGGSLRLICAASGSTFKAYAMGWYRQAPGKERELVAAITNSDGDTYYADSVKGRFTISRDNAKNTVYLQMNSLKPEDRAVYYCNADDALRQTPDYNYWGQGTQVTVSS | low polyreactivity
33 | QVQLVESGGGLVQAGGSLRLSCAASGSIFLIYAMGWYRQAPGKERELVAAINYSGVRTYYADSEKGRFTISRDYAKNTLYLPMNSLKPEETAVYYCAPDATSYSYRYNYWGQGTQVTVSS | high polyreactivity
34 | QVQLVESGGGLVQAGGSLRLSCAASGRIFYNVMGWYRQAPGKERELVAAISSSGGRTYYADSVKGRFTISRDNAKNTVYLQMNSLKPEDTAVYYCAARAWYYGYWGQGTQVTVSS | high polyreactivity
35 | QVQLVESGGGLVQAGGSLRLSCAASGRTFETNAMGWYRQAPGKERELVAAISRSGGSTRYADSVKGRFTISRDNAKNTVYLQMNRLKPEDTAVYYCAVRVGLGGGYWGQGTQVTVSS | high polyreactivity
36 | QVQLVESGGGLVQAGGSLRLSCAASGSTYYYAMGWSRQAPGKERELVAAISSSSGSTYYADSVKGRFTISRDNAKNTVYLQMNSLKPEDTAVYYCAAEGYKGWVYEYDYWGQGTQVTVSS | low polyreactivity
37 | QVQLVESGGGLVQAGGSLRLSCAASGFIFGSYAMGWYRQAPGKERELVAAITSDGNTDYADSVKGRFTISRDNAKNTVYLQMNSLKPEDTAVYYCATDWVDHYDYWGQGTQVTVSS | low polyreactivity
38 | QVQLVESGGGLVQAGGSLRLSCAASGYIFKYNAMGWYRQAPGKERELVATIRGGGSTNYADSVKGRFTISRDNAKNTVYLQMNSLKPEDTAVYYCAAVQRYEYGYWGQGTQVTVSS | high polyreactivity
39 | QDQLVESGGGLVQAGGSLRLSCAASGSIFKRYAMGWYRQAPGKERELVAAISYSGGSTYYADSVKGRFTISRDNAKNTVYLQMNSLKPEDTAVYYCAAATYRQQWHYYWGQGTQVTVSS | high polyreactivity
40 | QVQLVESGGGLVQAGGSLRLSCAASGFIFQRNAMGWYRQAPGKERELVAAIRGTGGSTYYADSVKGRFTISRDNAKNTVYLQMNSLKPEDTAVYYCNRLSSYHMDYWGQGTQVTVSS | high polyreactivity
41 | QVQLVESGGGLVQAGGSLRLSCAASGRTLGWYAMGWYRQAPGKERELVATISITGGSTYYADSVKGRFTISRDNAKNTVYLQMNSLKPEDTAVYYCAARHGSRRRYYYWGQGTQVTVSS | high polyreactivity
42 | QVQLVESGGGLVQAGGSLRLSCAASGFTFGGYAMGWYRQAPGKERELVAAISGRGGRTYYADSVKGRFTISRDNAKNTVYLQMNSLKPEDTAVYYCAAPTNHWTRLSGDYWGQGTQVTVSS | high polyreactivity
43 | QVQLVESGGGLVQAGGSLRLSCAASGFYNTMGWYRQAPRKERELVAAISTGGMTNYADSVKGRFTISRDNAKNTVYLQMNSLKPVDTAVYYCAADGYSTVYSTYDYWGQGTQVTVSS | low polyreactivity

From the nanobody polyreactivity screen of Harvey et al. (2022)
